Reference: US8629107B2, “Genes and proteins associated with angiogenesis and uses thereof” (National Jewish Health, priority 2005, dated 2014)
Entries after “also recorded” stand apart in the source; their conditions may differ.

Tests used:
MB114 cells = assay: angiogenic sprouting in rat tail collagen matrices; format: cell-based, murine
Experimental: (§1) The effect putative angiogenic agents had on MB114 cell activities were determined as follows: (i) cell proliferation using a [^3H]thymidine incorporation assay as described (Albig et al, 2006; Albig and Schiemann, 2004; Albig and Schiemann, 2005); (ii) cell invasion through Matrigel matrices using a modified Boyden-chamber assay as described (Albig et al, 2006; Albig and Schiemann, 2004; Albig and Schiemann, 2005); (iii) p38 MAPK phosphorylation using immunoblot analyses as described (Albig et al, 2006; Albig and Schiemann, 2004; Albig and Schiemann, 2005); (iv) angiogenic sprouting in rat tail collagen matrices as described (Albig et al, 2006; Albig and Schiemann, 2004); and (v) Hes1- and SBE-driven luciferase reporter gene assays as described (Albig et al, 2006; Albig and Schiemann, 2004; Albig and Schiemann, 2005).
Finally, it was determined whether expression of these putative angiogenic factors could effect the angiogenic sprouting of quiescent MB114 cells monolayers. MB114 cells expressing either GFP or various putative angiogenic agents were grown to confluency, and subsequently were overlaid with rat tail collagen matrices. Angiogenic sprouting by quiescent EC monolayers was stimulated by inclusion of 10% FBS and allowed to proceed for 5 days. The quantity of invading angiogenic sprouts was determined by manual counting under a light microscope.
Based on the findings described in the Examples above, the inventors hypothesized that MAGP-2 promotes angiogenesis by antagonizing Notch1 signaling. To test this hypothesis, it was first determined whether inhibiting Notch signaling in MB114 cells would enhance their angiogenic sprouting. In doing so, MB114 cells were transiently transfected with the Hes1-luciferase reporter gene (and pCMV-β-gal cDNA as control), and subsequently were treated overnight with or without the highly specific gamma-secretase inhibitor, DAPT (Sastre et al, 2001), which inhibits S3-mediated cleavage of Notch1 and, consequently, NICD-mediated induction of Hes1 expression. Afterward, luciferase and β-gal activities were determined. […] In this experiment, quiescent MB114 cell monolayers were overlaid with rat tail collagen matrices, and were induced to form angiogenic sprouts by addition of 10% FBS supplemented with or without DAPT (10 μM). Five days later the number of invading angiogenic spouts were quantified by manual counting on a light microscope. Based on these findings, the inventors conclude that Notch activation functions in mediating angiostasis in MB114 cells. […] Collectively, these findings indicate that Notch1 signaling antagonizes angiogenic sprouting in MB114 cells, and that downregulation of Notch1 signaling components is necessary for angiogenesis activation in MB114 cells.
Having shown that Notch1 signaling mediates angiostasis in MB114 cells, the inventors next asked whether MAGP-2 promotes angiogenesis in MB114 cells via its ability to antagonize Notch signaling. To do so, MAGP-2-expressing MB114 cells were engineered to constitutively express active Notch1 NICD fragment in an attempt to overcome the block of Notch processing mediated by MAGP-2. More particularly, GFP-, MAGP-2-, and MAGP-2/N1ICD-expressing MB114 cells were transiently transfected with pHes1-luciferase and pCMV-β-gal cDNAs. Luciferase and β-gal activities were determined 48 h post-transfection. As the inventors observed previously, MAGP-2 expression reduced Hes1-luciferase activity in MB114 cells (FIG. 5C), a reaction that was bypassed by co-expression of NICD in these cells (FIG. 5C). […] In this experiment, quiescent monolayers of GFP-, MAGP-2-, and MAGP-2/N1ICD-expressing MB114 cells were overlaid with rat tail collagen matrices and incubated in the absence or presence of 10% FBS for 5 days. Afterward, the number of invading angiogenic sprouts were determined by manual counting under a light microscope.

[1] = tested on: Hes1 promoter (Notch1 signaling); assay: Hes1-driven luciferase reporter gene assay in MB114 cells; format: cell-based, murine
Experimental: as §1
MAGP-2 can interact physically with Notch1 and its ligand, Jagged-1 (Miyamoto et al, 2006; Nehring et al, 2005), resulting in the ectodomain shedding of both molecules from the cell surface. Notch signaling also plays an essential role in regulating normal vessel development and angiogenesis in mammals (Leong and Karsan, 2005; Shawber and Kitajewski, 2004). Given these two facts, the inventors hypothesized that MAGP-2 promotes angiogenesis by modulating Notch1 signaling. To test this hypothesis, first measured were changes in luciferase expression driven by a Hes1-luciferase reporter gene whose expression is induced by Notch1 activation (Iso et al, 2003). MB114 and HUVEC cells were transiently transfected either with pHes1-luciferase, pCMV-β-gal, and MAGP-2 cDNAs, or with pHes1-luciferase and pCMV-β-gal cDNAs and subsequently stimulated with rMAGP-2 (1 or 5 mg/ml). Afterward, luciferase and β-gal activities contained in detergent-solubilized cell extracts were measured. In addition, GFP- and MAGP-2-expressing MB114 cells were transiently transfected with pHes1-luciferase and pCMV-β-gal cDNAs, together with or without Jagged-1 cDNA as indicated. Afterward, luciferase and β-gal activities were measured as above.
To further investigate the impact of MAGP-2 on Notch1 processing and NICD accumulation, the inventors took advantage of recent findings showing that the ability of TGF-β to induce Hes1 promoter activity requires Smad3 to interact physically with NICD (Blokzijl et al, 2003), a reaction that is dispensable for canonical Smad3-mediated signaling stimulated by TGF-β (Blokzijl et al, 2003). It was therefore reasoned that the ability of MAGP-2 to inhibit NICD production in ECs would reduce the capacity of TGF-β to induce luciferase expression driven by the Hes1 promoter, but not that driven by the synthetic Smad2/3-binding element (SBE). GFP- and MAGP-2-expressing MB114 cells were transiently transfected with either pHes1- or pSBE-luciferase, both together with pCMV-β-gal as indicated in FIG. 4B. Afterward, the resulting transfectants were stimulated overnight with increasing concentrations of TGF-β1 (0-5 ng/ml).
Based on the findings described in the Examples above, the inventors hypothesized that MAGP-2 promotes angiogenesis by antagonizing Notch1 signaling. To test this hypothesis, it was first determined whether inhibiting Notch signaling in MB114 cells would enhance their angiogenic sprouting. […] Afterward, luciferase and β-gal activities were determined. […]

[2] = tested on: Hes1 promoter (Notch1 signaling); assay: Hes1-driven luciferase reporter gene assay in HUVEC cells; format: cell-based, human; design: dose or concentration left out as unconfirmed
Experimental: as §1
MAGP-2 can interact physically with Notch1 and its ligand, Jagged-1 (Miyamoto et al, 2006; Nehring et al, 2005), resulting in the ectodomain shedding of both molecules from the cell surface. […] To test this hypothesis, first measured were changes in luciferase expression driven by a Hes1-luciferase reporter gene whose expression is induced by Notch1 activation (Iso et al, 2003). […] Afterward, luciferase and β-gal activities contained in detergent-solubilized cell extracts were measured. […] Afterward, luciferase and β-gal activities were measured as above. […]

B1: MAGP-2: secreted glycoprotein (25 kDa); stably expressed in MB114 cells by bicistronic retroviral transduction, Myc-His tagged (protein)
chain: QRGDDVPETFTDDPNLVNDPSTDDTALADITPSTDDLAGDKNATAECRDEKFACTRLYSVHRPVRQCVHQSCFTSLRRMYIINNEICSRLVCKEHEAMKDELCRQMAGLPPRRLRRSNYFRLPPCENMNLQRPDGL
modifications: left off: small tags and cut ends
notes: secreted glycoprotein (25 kDa); stably expressed in MB114 cells by bicistronic retroviral transduction, Myc-His tagged
For B1, the “angiogenic sprouting of quiescent MB114 cell monolayers” value (MB114 cells; MB114 cells stably expressing the transgene vs GFP, 10% FBS, 5 days) was “significantly increased”, the “ability of Jagged-1 to induce Hes1-luciferase activity” value ([1]; MAGP-2-expressing vs GFP-expressing MB114 cells, with Jagged-1 cDNA) was “abrogated” and the “ability of TGF-β to stimulate Hes1-luciferase activity” value ([1]; MAGP-2-expressing vs GFP-expressing MB114 cells, TGF-β1 0-5 ng/ml overnight) was “significantly decreased”. The Hes1-driven luciferase activity ([1]; MAGP-2 expression in MB114 cells) was “repressed; also recorded: reduced” and the Hes1-driven luciferase activity ([2]; MAGP-2 expression in HUVEC cells) was “repressed”.

B2: rMAGP-2: recombinant FLAG-tagged MAGP-2 purified from bacterial cell extracts by anti-FLAG chromatography (protein, UniProt Q9QZJ6 29-164, looked up)
Microfibrillar-associated …: B1 chain
modifications: FLAG tag
notes: recombinant FLAG-tagged MAGP-2 purified from bacterial cell extracts by anti-FLAG chromatography
In the case of B2, the “angiogenic sprouting of quiescent MB114 cell monolayers” value (MB114 cells; purified recombinant protein added, 1 μg/ml) is reported as “stimulated”, the Hes1-driven luciferase activity ([1]; MB114 cells stimulated with recombinant protein, 1 or 5 mg/ml) is reported as “repressed” and the Hes1-driven luciferase activity ([2]; HUVEC cells stimulated with recombinant protein) is reported as “repressed”.
